From patent US20050107296A1 (INSTITUT DES VAISSEAUX ET DU SANG, published 2005)

Target: T1, soluble HGF-R, chimeric fusion protein (HGF-R/IgG) comprising the HGF-binding portion of the extracellular … (UniProt P08581 25-932, limits assumed)
T1 construct: also called c-Met; not shown: a portion of IgG
Test: SPR (BIAcore 2000), N immobilized on the sensor chip, soluble HGF-R/IgG injected at three different doses

T1 sequence (P08581 25-932 limits assumed, change not shown): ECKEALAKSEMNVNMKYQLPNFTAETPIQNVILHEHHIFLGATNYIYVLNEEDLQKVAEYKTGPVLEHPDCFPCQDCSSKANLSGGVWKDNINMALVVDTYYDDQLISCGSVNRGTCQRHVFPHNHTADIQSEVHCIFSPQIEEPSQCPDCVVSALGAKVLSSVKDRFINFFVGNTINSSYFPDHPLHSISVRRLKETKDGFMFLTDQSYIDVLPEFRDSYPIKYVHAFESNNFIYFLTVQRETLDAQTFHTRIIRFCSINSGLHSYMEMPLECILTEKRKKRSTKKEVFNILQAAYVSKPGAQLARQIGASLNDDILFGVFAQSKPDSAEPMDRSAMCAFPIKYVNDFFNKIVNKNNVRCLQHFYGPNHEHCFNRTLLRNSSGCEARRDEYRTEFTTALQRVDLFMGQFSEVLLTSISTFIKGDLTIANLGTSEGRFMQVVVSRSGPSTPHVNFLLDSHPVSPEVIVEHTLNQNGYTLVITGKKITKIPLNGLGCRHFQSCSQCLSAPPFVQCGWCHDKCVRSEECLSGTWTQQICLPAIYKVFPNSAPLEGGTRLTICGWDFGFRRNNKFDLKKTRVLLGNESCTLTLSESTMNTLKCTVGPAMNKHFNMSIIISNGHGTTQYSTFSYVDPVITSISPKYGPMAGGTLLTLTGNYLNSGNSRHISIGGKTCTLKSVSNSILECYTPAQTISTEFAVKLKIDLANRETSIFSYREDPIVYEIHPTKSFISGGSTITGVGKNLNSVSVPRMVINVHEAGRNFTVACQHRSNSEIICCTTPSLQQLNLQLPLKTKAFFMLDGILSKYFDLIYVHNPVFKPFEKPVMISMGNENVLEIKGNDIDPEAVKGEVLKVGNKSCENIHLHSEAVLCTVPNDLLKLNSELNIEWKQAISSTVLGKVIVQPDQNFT

B1: peptide N derived from the HGF α-chain (hairpin-loop domain of HGF, N-terminal Gln instead of PyrGlu) (peptide)
chain: QRKRRNTIHEFKKSAKTTLIKIDPALKIKTKKVNTADQCANRCTRNKGLPFTCKAFVFDKARKQCLWFPFNSMSSGVKKEFGHEFDLYENKDYIRN
notes: Expressed in E. coli and purified; In Assay 6 it was immobilized on the BIAcore sensor chip; also called Ex 1
B1: no binding.
